Test results reported in paper PMC3075868.

Assays:
[1] = biological target: HIV-1 NL4-3 CA N21C/A22C/W184A/M185A (disulfide-crosslinked pentamer) (HIV-1 NL4-3); test: crystal structure
[2] = biological target: HIV-1 NL4-3 CA P17C/R18L/T19C/W184A/M185A (disulfide-crosslinked pentamer) (HIV-1 NL4-3); test: crystal structure

Substance	stoichiometry N [1]	stoichiometry N [2]
HIV-1 NL4-3 CA N21C/A22C/W184A/M185A (disulfide-crosslinked pentamer) (natural protein)	5	–
HIV-1 NL4-3 CA P17C/R18L/T19C/W184A/M185A (disulfide-crosslinked pentamer) (natural protein)	–	5
